In US8586056:
Read-outs that look alike come from different tables or passages of the source.

Assays:
[1] = molecular target: 16936V1-3-55 gp160 full length Env (HIV-1 (16936 with 16055 V1-3 loops))
[2] = molecular target: Env of the 16055 virus (HIV-1 clade C, isolate 16055)
[3] = molecular target: HIV-1 Env 16936 (HIV-1, isolate 16936)
[4] = molecular target: HIV-1 clade C 16055 gp120-Histag, EF117268_gp120 (HIV-1 clade C, isolate 16055); assay: Octet
[5] = molecular target: HIV-1 clade C 16055 gp120-Histag, EF117268_gp120 (HIV-1 clade C, isolate 16055); assay: Octet (biolayer interferometry)
[6] = molecular target: 0013095 (EF117267) (HIV-1)
CAP45 (HIV-1) [7] = molecular target: CAP45 (HIV-1)
DU422 (HIV-1) [8] = molecular target: DU422 (HIV-1)
Du172 (HIV-1) [9] = molecular target: Du172 (HIV-1)
[10] = molecular target: Env of the 16055 virus (HIV-1 clade C, isolate 16055); remark: listed apart in the source
[11] = molecular target: HIV-1 Env 16936 (HIV-1, isolate 16936); remark: listed apart in the source
JRCSF [12] = molecular target: JRCSF
JRFL (HIV-1) [13] = molecular target: JRFL (HIV-1)
QH0692 (HIV-1) [14] = molecular target: QH0692 (HIV-1)
SF162 (HIV-1) [15] = molecular target: SF162 (HIV-1)
YU2 [16] = molecular target: YU2
ZM214 (HIV-1) [17] = molecular target: ZM214 (HIV-1)
[18] = molecular target: Zm109F (AY424138) (HIV-1)
Zm135 (HIV-1) [19] = molecular target: Zm135 (HIV-1)
Zm197 (HIV-1) [20] = molecular target: Zm197 (HIV-1)
CAP45 (HIV-1) [21] = molecular target: CAP45 (HIV-1); remark: listed apart in the source
DU422 (HIV-1) [22] = molecular target: DU422 (HIV-1); remark: listed apart in the source
Du172 (HIV-1) [23] = molecular target: Du172 (HIV-1); remark: listed apart in the source
[24] = molecular target: Env of the 16055 virus (HIV-1 clade C, isolate 16055); remark: listed apart in the source
JRCSF [25] = molecular target: JRCSF; remark: listed apart in the source
YU2 [26] = molecular target: YU2; remark: listed apart in the source
Zm135 (HIV-1) [27] = molecular target: Zm135 (HIV-1); remark: listed apart in the source
Zm197 (HIV-1) [28] = molecular target: Zm197 (HIV-1); remark: listed apart in the source
[29] = molecular target: 16936-16055V123loop (HIV-1 (16936 backbone with 16055 V1, V2 and V3 loops)); assay: ELISA
[30] = molecular target: BG505_gp120 (HIV-1 clade A, BG505); assay: ELISA on BG505 gp120
[31] = molecular target: Env of the 16055 virus (HIV-1 clade C, isolate 16055); assay: shed gp120 capture ELISA
JRCSF [32] = assay: shed gp120 capture ELISA
0013095 gp140 = assay: ELISA on recombinant gp140
[33] = molecular target: HIV-1 clade C 16055 gp140-Histag, EF117268_gp140 (HIV-1 clade C, isolate 16055); assay: ELISA on recombinant gp140
[34] = molecular target: 16055 gp140 trimer with c-terminus trimerization domain GCN4 (HIV-1 clade C, isolate 16055); assay: ELISA on recombinant gp140
[35] = molecular target: HIV-1 clade C 16055 gp140-Histag, EF117268_gp140 (HIV-1 clade C, isolate 16055); assay: ELISA on recombinant gp140; remark: listed apart in the source
[36] = molecular target: Env of the 16055 virus (HIV-1 clade C, isolate 16055); assay: ELISA; same curves as panel 16055-2 of FIG. 3A
JRFL (HIV-1) [37] = molecular target: JRFL (HIV-1); remark: listed apart in the source
QH0692 (HIV-1) [38] = molecular target: QH0692 (HIV-1); remark: listed apart in the source
SF162 (HIV-1) [39] = molecular target: SF162 (HIV-1); remark: listed apart in the source
ZM214 (HIV-1) [40] = molecular target: ZM214 (HIV-1); remark: listed apart in the source

4E10 (antibody)
neutralization IC50 [1]: 2.68 µg/mL
neutralization IC50 [2]: 7.02 µg/mL
neutralization IC50 [3]: 3.85 µg/mL

A32 (antibody)
Kd [4]: 5.2 nM
koff [4]: 8.23e-05 s⁻¹
kon [4]: 15600 M⁻¹ s⁻¹

F105 (antibody)
koff [4]: 0.00169 s⁻¹
kon [4]: 8430 M⁻¹ s⁻¹
Kd [5]: 200 nM

PG9 (antibody)
neutralization IC50 [6]: < 0.01 µg/mL
neutralization IC50 (25710 (EF117271) (HIV-1)): < 0.01 µg/mL
neutralization IC50 (25925 (EF117273) (HIV-1)): 0.15 µg/mL
neutralization IC50 (6535 (AY835438) (HIV-1)): 0.6 µg/mL
neutralization IC50 (AC10 (HIV-1)): 0.05 µg/mL
neutralization IC50 (Bal (HIV-1)): < 0.01 µg/mL
neutralization IC50 (CAAN (AY835452) (HIV-1)): 11.9 µg/mL
neutralization IC50 (CAP45 (HIV-1) [7]): < 0.01 µg/mL
neutralization IC50 (DU422 (HIV-1) [8]): 1.64 µg/mL
neutralization IC50 (Du172 (HIV-1) [9]): 0.49 µg/mL
neutralization IC50 [10]: < 0.01 µg/mL
neutralization IC50 (virus printed '6936') [11]: > 25 µg/mL
neutralization IC50 (JRCSF [12]): < 0.01 µg/mL
neutralization IC50 (JRFL (HIV-1) [13]): > 25 µg/mL
neutralization IC50 (PVO (HIV-1)): 9.76 µg/mL
neutralization IC50 (QH0692 (HIV-1) [14]): > 25 µg/mL
neutralization IC50 (SF162 (HIV-1) [15]): > 25 µg/mL
neutralization IC50 (YU2 [16]): < 0.01 µg/mL
neutralization IC50 (ZM214 (HIV-1) [17]): > 25 µg/mL
neutralization IC50 [18]: 0.46 µg/mL
neutralization IC50 (Zm135 (HIV-1) [19]): 17.6 µg/mL
neutralization IC50 (Zm197 (HIV-1) [20]): 0.61 µg/mL
neutralization IC50 (CAP45 (HIV-1) [21]): 0.003 µg/mL
neutralization IC50 (DU422 (HIV-1) [22]): 0.178 µg/mL
neutralization IC50 (Du172 (HIV-1) [23]): 0.24 µg/mL
neutralization IC50 [24]: 0.01 µg/mL
neutralization IC50 (JRCSF [25]): 0.002 µg/mL
neutralization IC50 (MulV): > 25 µg/mL
neutralization IC50 (Q842 (HIV-1)): 0.02 µg/mL
neutralization IC50 (REJ0451 (HIV-1)): 0.001 µg/mL
neutralization IC50 (RW020 (HIV-1)): 0.05 µg/mL
neutralization IC50 (UG037 (HIV-1)): 0.02 µg/mL
neutralization IC50 (WIT04160 (HIV-1)): 0.005 µg/mL
neutralization IC50 (YU2 [26]): 1.73 µg/mL
neutralization IC50 (Zm135 (HIV-1) [27]): > 25 µg/mL
neutralization IC50 (Zm197 (HIV-1) [28]): 0.287 µg/mL
neutralization IC50 [1]: 0.03 µg/mL
neutralization IC50 [3]: > 25 µg/mL
EC50 (read off the curve) [29]: 0.2 µg/mL
EC50 (read off the curve) [30]: 0.04 µg/mL
EC50 (read off the curve) [31]: 0.3 µg/mL
EC50 (read off the curve) (JRCSF [32]): 0.3 µg/mL
EC50 (read off the curve) (0013095 gp140): 0.9 µg/mL
EC50 (read off the curve) [33]: 0.1 µg/mL
EC50 (read off the curve) [34]: 0.1 µg/mL
EC50 (read off the curve) [35]: 0.2 µg/mL
EC50 (read off the curve) [36]: 0.3 µg/mL

PG16 (antibody)
neutralization IC50 [6]: < 0.01 µg/mL
neutralization IC50 (25710 (EF117271) (HIV-1)): < 0.01 µg/mL
neutralization IC50 (25925 (EF117273) (HIV-1)): 0.11 µg/mL
neutralization IC50 (6535 (AY835438) (HIV-1)): > 25 µg/mL
neutralization IC50 (AC10 (HIV-1)): < 0.01 µg/mL
neutralization IC50 (Bal (HIV-1)): < 0.01 µg/mL
neutralization IC50 (CAAN (AY835452) (HIV-1)): 12.9 µg/mL
neutralization IC50 (CAP45 (HIV-1) [7]): < 0.01 µg/mL
neutralization IC50 (DU422 (HIV-1) [8]): 2.34 µg/mL
neutralization IC50 (Du172 (HIV-1) [9]): 0.06 µg/mL
neutralization IC50 (virus printed '6936') [11]: > 25 µg/mL
neutralization IC50 (JRCSF [12]): < 0.01 µg/mL
neutralization IC50 (JRFL (HIV-1) [13]): > 25 µg/mL
neutralization IC50 (PVO (HIV-1)): 21.9 µg/mL
neutralization IC50 (QH0692 (HIV-1) [14]): > 25 µg/mL
neutralization IC50 (SF162 (HIV-1) [15]): > 25 µg/mL
neutralization IC50 (YU2 [16]): < 0.01 µg/mL
neutralization IC50 (ZM214 (HIV-1) [17]): > 25 µg/mL
neutralization IC50 [18]: > 25 µg/mL
neutralization IC50 (Zm135 (HIV-1) [19]): > 25 µg/mL
neutralization IC50 (Zm197 (HIV-1) [20]): 1.68 µg/mL
neutralization IC50 (CAP45 (HIV-1) [21]): 0.002 µg/mL
neutralization IC50 (DU422 (HIV-1) [22]): 0.042 µg/mL
neutralization IC50 (Du172 (HIV-1) [23]): 0.023 µg/mL
neutralization IC50 [24]: 0.01 µg/mL
neutralization IC50 (JRCSF [25]): 0.001 µg/mL
neutralization IC50 (MulV): > 25 µg/mL
neutralization IC50 (Q842 (HIV-1)): 0.009 µg/mL
neutralization IC50 (REJ0451 (HIV-1)): 0.004 µg/mL
neutralization IC50 (RW020 (HIV-1)): 0.037 µg/mL
neutralization IC50 (UG037 (HIV-1)): 0.01 µg/mL
neutralization IC50 (WIT04160 (HIV-1)): 0.002 µg/mL
neutralization IC50 (YU2 [26]): 0.114 µg/mL
neutralization IC50 (Zm197 (HIV-1) [28]): 0.765 µg/mL
neutralization IC50 [1]: 0.06 µg/mL
neutralization IC50 [2]: < 0.01 µg/mL
neutralization IC50 [3]: > 25 µg/mL
EC50 (read off the curve) [30]: 0.2 µg/mL
EC50 (read off the curve) [33]: 0.08 µg/mL
EC50 (read off the curve) [34]: 0.08 µg/mL
EC50 (read off the curve) [35]: 0.1 µg/mL

VRC01 (antibody)
koff [4]: 0.000294 s⁻¹
kon [4]: 4780 M⁻¹ s⁻¹
Kd [5]: 61 nM

b6 (antibody)
Kd [4]: 7.7 nM
koff [4]: 8.66e-05 s⁻¹
kon [4]: 11000 M⁻¹ s⁻¹

b12 (antibody)
neutralization IC50 (CAP45 (HIV-1) [21]): 0.37 µg/mL
neutralization IC50 (DU422 (HIV-1) [22]): 0.464 µg/mL
neutralization IC50 (Du172 (HIV-1) [23]): 0.3 µg/mL
neutralization IC50 (JRCSF [25]): 0.096 µg/mL
neutralization IC50 (JRFL (HIV-1) [37]): 0.022 µg/mL
neutralization IC50 (MulV): > 25 µg/mL
neutralization IC50 (Q842 (HIV-1)): > 25 µg/mL
neutralization IC50 (QH0692 (HIV-1) [38]): 0.97 µg/mL
neutralization IC50 (REJ0451 (HIV-1)): 5.92 µg/mL
neutralization IC50 (RW020 (HIV-1)): 10 µg/mL
neutralization IC50 (SF162 (HIV-1) [39]): 0.07 µg/mL
neutralization IC50 (UG037 (HIV-1)): > 25 µg/mL
neutralization IC50 (WIT04160 (HIV-1)): 8.58 µg/mL
neutralization IC50 (YU2 [26]): 2.18 µg/mL
neutralization IC50 (ZM214 (HIV-1) [40]): 13.6 µg/mL
neutralization IC50 (Zm135 (HIV-1) [27]): > 25 µg/mL
neutralization IC50 (Zm197 (HIV-1) [28]): > 25 µg/mL
neutralization IC50 [1]: 20.5 µg/mL
neutralization IC50 [2]: > 25 µg/mL
neutralization IC50 [3]: > 25 µg/mL
koff [4]: 0.00107 s⁻¹
kon [4]: 8790 M⁻¹ s⁻¹
EC50 (read off the curve) [30]: 0.03 µg/mL
Kd [5]: 120 nM
